Data from patent publication US20250027068.
Changes are numbered by the printed parent chain.

B1: PRT-265 (protein)
chain: MVTSVWTKGVTPPTNFTYGEDVLHAPYVANQGWYDITKLFNGKDNLLCGAATAGNMLHWWFDQNKEQIENYLKKHPEKQKINFNGEQLFDVKEAIDTKDSQLDSKLFEYFLEKAFPYLSTKHLGVFPDHVIDMFINGYRLSLTNHGPTPVKRGSKDKRGGIFDAVFTRGVQSKLLTNRHDFKEKTLKEISDLIKQELTEGKALGISHTYANVRINHVINLWGADFDAEGNLEAIAVTDSDTNASIGMKKYFVGVNSSGKVAISAKEIEEDNIGAQVLGLFTLSTGQDIWNQTN
B2: PRT-23 (protein)
chain: MANQEIRYSEVTPYHVTSVWTKGVTPPANFTQGEDVFHAPYVANQGWYDITKTFNGKDDLLCGAATAGNMLHWWFDQNKDQIERYLKEHPEKQKINFNGEQMFDVKEAIDTKNSQTDSKLFEYFKEKAFPYLSTKHLGVFPDHVIDMFINGYRLSLTNHGPTPVKEGSKDPRGGIFDAVFTRGDQSKLLTSRHDFKEKNLKEISDLIKKELTEGKALGLSHTYANVRINHVINLWGADFDSNGNLEAIYVTDSDSNASIGMKKYFVGVNSAGKVAISAKEIKEDNIGAQVLGLFTLSTGQDIWNQTN
B3: PRT-24 (protein)
chain: B2 chain with N113D, I145L, N199T, E246K
B4: PRT-273 (protein)
chain: MVTSVWTKGVTPPTDFIYGEDVLHAPYKAGQGWYDITKTFNGKDNLLCGAATAGNMLHWWFDQNKEQIENYLKKHPEKQKIIFNNQELFDLKAAIDTKDSQLDSKLFEYFKEKAFPNLSTKHLGVFPDHVIDMFINGYRLSLLNHGPTPVKRGSKDKRGGIFDAVFTRGVQSKLLTNRHDLKNKTLKEISDLIKQELTEGKALGISHTYANVRINHVINLWGADFDAEGNLEAIYVTDSDTNASIGMKKYFVGVNSSGKVAISAKEIEEDNIGAQVLGLFTLSTGQDIWNQTN
B5: PRT-313 (protein)
chain: MQITSVWTKGVTPLTPEQFRENNEDVIHAPYLAHQGWYDITKAFDGKDNLLCGAATAGNMLHWWFDQNKTEIEAYLSKHPEKQKIIFGNQELFDLKAAIDTKDSQTNSQLFDYFRDKAFPNLSARQLGVMPDLVLDMFINGYYLNVGKTQSTDVNRPYQDKDKRGGIFDAVFTRGDQTTLLTARHDLKNKGLNDISTIIKQELTEGRALALSHTYANVSISHVINLWGADFNAEGELEAIYVTDSDANPSIGMKKYFVGRNAHGHVAISAKKIEGENIGAQVLGLFTLSSGKDIWQKLS
B6: PRT-242 (protein)
chain: MVTSVWTKGVTPPANFTQGEDVFHAPYVANQGWYDITKTFNGKDDLLCGAATAGNMLHWWFDQNKDQIKRYLEEHPEKQKINFNGEQMFDVKEAIDTKNHQLDSKLFDYFKEKAFPNLSTKHLGVFPDHVIDMFINGYRLSLLNHGPTPVKEGSKDPRGGIFDAVFTRGDQSKLLTSRHDFKEKNLKEISDLIKKELTEGKALGLSHTYANVRINHVINLWGADFDSNGNLKAIYVTDSDSNPSIGMKKYFVGVNSSGKVAISAKEIKEDNIGAQVLGLFTLSTGQDSWNQTN
B7: PRT-289 (protein)
chain: MVTSVWTKGVTPPADFTQGEDVFHAPYVANQGWYDITKTFNGKDDLLCGAATAGNMLHWWFDQNKEYIEAYLKKHPEKQKIMFGDQELLDVRKAINTKGSQKNSELFNYFRDKAFPNLSARRLGVMPDLVLDMFINGYYLNVTKTQTTDVNRTYQEKDKRGGIFDAVFTRGDQSKLLTSRHDFKEKGLKEISDLIKQELTEGKALGLSHTYANVGINHVINLWGADFDSDGNLKAIYVTDSDSNASIGMKKYFVGVNSSGKVAISAKEIKEDNIGAQVLGLFTLSTGQDIWNQTN
B8: PRT-297 (protein)
chain: B7 chain with V28D, T39E, G215R, N217G, F253G, S259A
B9: PRT-305 (protein)
chain: B7 chain with A14T, T17I, Q18K, V28K, N30G, T39E, G215R, N217G, F253G, S259A
B10: PRT-321 (protein)
chain: MTITSVWTKGVTPPTPEDFRENNEDVLHAPYVANQGWYDITKTFDGKDNLLCGAATAGNMLHWWFDQNKEEIERYLKKHPEKQKIIFGNQELFDVKAAIDTKDSQTNSKLFDYFRDKAFPNLSARQLGVMPDLVLDMFINGYYLNLPKTQSTDVNRPYQDKDKRGGIFDAVFTRGDQTTLLTARHDLKNKGLNEISDLIKQELTEGKALALSHTYANVRINHVINLWGADFDAEGNLIAIYVTDSDANASIGMKKYAVGVNANGKVAISAKKIEGDNIGAQVLGLFTLSTGQDQWQKLS
B11: PRT-329 (protein)
chain: B10 chain with G88N, D112N, N121G, M130F, P147G, D176V, A257F, V260R, T290L, Q294I
B12: PRT-281 (protein)
chain: MVTSVWTKGVTPPAKFTQGEDVFHAPYVANQGWYDITKTFNGKDDLLCGAATAGNMLHWWFDQNKEKIEAYLKKHPDKQKIMFGDQELLDVRKVINTKGDQTNSELFNYFRDKAFPNLSARRIGVMPDLVLDMFINGYYLNVYKTQTTDVNRTYQEKDRRGGIFDAVFTRGDQSKLLTSRHDFKEKNLKEISDLIKKELTEGKALGLSHTYANVRIGHVINLWGADFDSNGNLKAIYVTDSDSNASIGMKKYFVGVNSSGKVAISAKEIKEDNIGAQVLGLFTLSTGQDSWNQTN
B13: PRT-249 (protein)
chain: MVTSVWTKGVTPPTNFTYGEDVLHAPYVANQGWYDITKTFNGKDDLLCGAATAGNMLHWWFDQNKEQIENYLKKHPEKQKINFNGEQMFDVKEAIDTKDSQLDSKLFDYFKEKAFPNLSTKHLGVFPDHVIDMFINGYRLSLLNHGPTPVKRGSKDPRGGIFDAVFTRGDQSKLLTNRHDFKEKTLKEISDLIKQELTEGKALGISHTYANVRINHVINLWGADFDAEGNLEAIYVTDSDSNPSIGMKKYFVGVNSSGKVAISAKEIEEDNIGAQVLGLFTLSTGQDIWNQTN
B14: PRT-257 (protein)
chain: B13 chain with T39L, N117Y, L143T
B15: PRT-250 (protein)
chain: B13 chain with T39L, V212G
B16: PRT-266 (protein)
chain: B13 chain with N15D, T17I, V28K, N30G, D108E, F181L, E183N, P243A
B17: PRT-258 (protein)
chain: B1 chain with N45D, L88M, K157P, V170D, T241S

Target: pooled human IgG

Protein	Enzyme Activity Endpoint Assay (purified): Fab'2	Enzyme Activity Endpoint Assay (purified): Fc	Enzyme Activity Endpoint Assay (purified): IgG	Enzyme Activity Endpoint Assay (purified): scIgG	Enzyme Activity Endpoint Assay: Fab′2	Enzyme Activity Endpoint Assay: Fc	Enzyme Activity Endpoint Assay: IgG	Enzyme Activity Endpoint Assay: scIgG
B1	0 ng/µL	3 ng/µL	1640 ng/µL	0 ng/µL	–	–	–	–
B2	–	–	–	–	45 ng/µL	125 ng/µL	12 ng/µL	19 ng/µL
B3	–	–	–	–	52 ng/µL	131 ng/µL	18 ng/µL	16 ng/µL
B4	782 ng/µL	429 ng/µL	0 ng/µL	0 ng/µL	–	–	–	–
B5	409 ng/µL	303 ng/µL	114 ng/µL	328 ng/µL	–	–	–	–
B6	1030 ng/µL	418 ng/µL	0 ng/µL	0 ng/µL	–	–	–	–
B7	581 ng/µL	304 ng/µL	90 ng/µL	114 ng/µL	–	–	–	–
B8	484 ng/µL	345 ng/µL	338 ng/µL	0 ng/µL	–	–	–	–
B9	786 ng/µL	359 ng/µL	91 ng/µL	0 ng/µL	–	–	–	–
B10	469 ng/µL	337 ng/µL	139 ng/µL	214 ng/µL	–	–	–	–
B11	928 ng/µL	406 ng/µL	0 ng/µL	0 ng/µL	–	–	–	–
B12	673 ng/µL	317 ng/µL	347 ng/µL	29 ng/µL	–	–	–	–
B13	818 ng/µL	457 ng/µL	0 ng/µL	0 ng/µL	–	–	–	–
B14	1050 ng/µL	439 ng/µL	0 ng/µL	0 ng/µL	–	–	–	–
B15	313 ng/µL	310 ng/µL	86 ng/µL	454 ng/µL	–	–	–	–
B16	698 ng/µL	401 ng/µL	0 ng/µL	0 ng/µL	–	–	–	–
B17	762 ng/µL	425 ng/µL	0 ng/µL	0 ng/µL	–	–	–	–
